B1: full-length, C-terminal, Flag-tagged human Lnp [human] / Myc-ATL3 [human] (parent complex)
chain 1: MGGLFSRWRTKPSTVEVLESIDKEIQALEEFREKNQRLQKLWVGRLILYSSVLYLFTCLIVYLWYLPDEFTARLAMTLPFFAFPLIIWSIRTVIIFFFSKRTERNNEALDDLKSQRKKILEEVMEKETYKTAKLILERFDPDSKKAKECEPPSAGAAVTARPGQEIRQRTAAQRNLSPTPASPNQGPPPQVPVSPGPPKDSSAPGGPPERTVTPALSSNVLPRHLGSPATSVPGMGLHPPGPPLARPILPRERGALDRIVEYLVGDGPQNRYALICQQCFSHNGMALKEEFEYIAFRCAYCFFLNPARKTRPQAPRLPEFSFEKRQVVEGSSSVGPLPSGSVLSSDNQFNEESLEHDVLDDNTEQTDDKIPATEQTNQVIEKASDSEEPEEKQETENEEASVIETNSTVPGADSIPDPELSGESLTAE
chain 2: MLSPQRVAAAASRGADDAMESSKPGPVQVVLVQKDQHSFELDEKALASILLQDHIRDLDVVVVSVAGAFRKGKSFILDFMLRYLYSQKESGHSNWLGDPEEPLTGFSWRGGSDPETTGIQIWSEVFTVEKPGGKKVAVVLMDTQGAFDSQSTVKDCATIFALSTMTSSVQIYNLSQNIQEDDLQQLQLFTEYGRLAMDEIFQKPFQTLMFLVRDWSFPYEYSYGLQGGMAFLDKRLQVKEHQHEEIQNVRNHIHSCFSDVTCFLLPHPGLQVATSPDFDGKLKDIAGEFKEQLQALIPYVLNPSKLMEKEINGSKVTCRGLLEYFKAYIKIYQGEDLPHPKSMLQATAEANNLAAAASAKDIYYNNMEEVCGGEKPYLSPDILEEKHCEFKQLALDHFKKTKKMGGKDFSFRYQQELEEEIKELYENFCKHNGSKNVFSTFRTPAVLFTGIVALYIASGLTGFIGLEVVAQLFNCMVGLLLIALLTWGYIRYSGQYRELGGAIDFGAAYVLEQASSHIGNSTQATVRDAVVGRPSMDKKAQ

Variants of: B1
Assay: co-immunoprecipitation; COS-7 cell lysates containing 1% Triton X-100; anti-Flag antibody-conjugated agarose; band quantification by Image J; parent: 1

Row | ratio to parent | Variant
1 | 0.32 | chain 1 I25D
2 | 0.34 | chain 1 L28D
3 | 0.26 | chain 1 I25D, chain 1 L28D

— article PMC6588657 (2018)
